According to publication PMC6104806 (Nature structural & molecular biology, 2018):
Where two headings read alike, the source gives them in different places.

Assays:
[1] = biological target: the molecule itself; experiment: SEC
[2] = biological target: the molecule itself; experiment: SEC; remark: listed apart in the source

B1: CmDnm1 (native), mitochondrial fission dynamin from Cyanidioschyzon merolae (natural protein, UniProt Q84Y91 1-768, looked up)
chain: MERLIPIVNKLQDLFAETGLDSPIDLPQIMVVGAQSSGKSSVLENVVGESIFPRGTGIVTRRPIVVQLYCTARERLNQSGAPDNMFNEDGSYVLSDGAPTDPRSIPPGAENQAYAEFLHKPGVRFYNFDDVRAEIERETDRVTGKNKGISPKAINLRVYSPHVVNLTVVDLPGLTKVPVGDQPSDIERLIRAMVLSYIERPNAIILAVHPATMDLATSDALQIARQADPEGRRTLGVITKLDLMDKGTDAMEMLTGKVIPLKLGYIGVICRGPADLRAGKSIQQAREDEIRFFRSHPVYRRLLPQLGTNTLARTLSTLLMKHIRDTLPSIRQKMSQQLAEWRKELQTLGPAFEGADDLGGALLNVINRYSSEFAKSLEGNSQQTVNTQELYGGARINYIFNDIYAKELQSMNAFEGLTREDIRTAIRNATGHRSPLFVPELAFELLVKKQITHFVPPAYSCVDLVYDELVRLALNCETELLQRYENLRSEILACAQNLLRELKQPCLEMVQNLIAMETSYISVNHKDFIGGNKAMSQLVRARMEEEERRTRSAKAANSTDNAANSAPKESNANDNRILQPRRRNQDENAKKNDDARRKDDKSPNKTDASNAEKDARSDRNPRGDPTMDNFFNEADEDEEDGNERRNRGLHTLPSVPEHLKAGEVSSDRDRDDIELIQTLLASYFDVVRVNMMDMVPKAIMSFLVLRARDRMQSRLVADLYKPERMSELLNESSDVAERRATAKRMVDLLQRGMAVINEVRDVHVKEEI
stoichiometry N [1]: 4

B2: CmDnm1 GHRS431-434AAAA, self-assembly limiting stalk mutant (natural protein, Cyanidioschyzon merolae, UniProt Q84Y91 1-768, looked up)
chain: MERLIPIVNKLQDLFAETGLDSPIDLPQIMVVGAQSSGKSSVLENVVGESIFPRGTGIVTRRPIVVQLYCTARERLNQSGAPDNMFNEDGSYVLSDGAPTDPRSIPPGAENQAYAEFLHKPGVRFYNFDDVRAEIERETDRVTGKNKGISPKAINLRVYSPHVVNLTVVDLPGLTKVPVGDQPSDIERLIRAMVLSYIERPNAIILAVHPATMDLATSDALQIARQADPEGRRTLGVITKLDLMDKGTDAMEMLTGKVIPLKLGYIGVICRGPADLRAGKSIQQAREDEIRFFRSHPVYRRLLPQLGTNTLARTLSTLLMKHIRDTLPSIRQKMSQQLAEWRKELQTLGPAFEGADDLGGALLNVINRYSSEFAKSLEGNSQQTVNTQELYGGARINYIFNDIYAKELQSMNAFEGLTREDIRTAIRNATAAAAPLFVPELAFELLVKKQITHFVPPAYSCVDLVYDELVRLALNCETELLQRYENLRSEILACAQNLLRELKQPCLEMVQNLIAMETSYISVNHKDFIGGNKAMSQLVRARMEEEERRTRSAKAANSTDNAANSAPKESNANDNRILQPRRRNQDENAKKNDDARRKDDKSPNKTDASNAEKDARSDRNPRGDPTMDNFFNEADEDEEDGNERRNRGLHTLPSVPEHLKAGEVSSDRDRDDIELIQTLLASYFDVVRVNMMDMVPKAIMSFLVLRARDRMQSRLVADLYKPERMSELLNESSDVAERRATAKRMVDLLQRGMAVINEVRDVHVKEEI
stoichiometry N [2]: 4
